Results reported in the supplement of paper PMC9112550, “Optimization of the antimicrobial peptide Bac7 by deep mutational scanning” (BMC Biology, 2022).

test system: Escherichia coli TOP10; experiment: shrunken log2 fold change of peptide-encoding DNA abundance (4.5 h post-induction vs induction); higher = less antimicrobial activity (less host growth inhibition); settings: time post-induction: 4.5 h; library: site-saturation at positions 5, 18, 19, 20
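Also: peptides expressed intracellularly from a pBAD plasmid library in pooled LB shake-flask culture, induced with 0.3% L-arabinose, DNA abundance read by NGS, three biological replicates, DESeq2 with apeglm shrinkage.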

Point of comparison: RRIRNRPPRLPRPRPRPNNWPRP, “shrunken log2 fold change” value -0.0773. Against it:
- RRIRNRPPRLPRPRPRPIHSPRP — within 0.2 log units, -0.189
- RRIRVRPPRLPRPRPRPQIIPRP — lower, -0.299
- RRIRSRPPRLPRPRPRPTTWPRP — within 0.2 log units, 0.053
- RRIRWRPPRLPRPRPRPNAPPRP — higher, 0.328
- RRIRKRPPRLPRPRPRPILRPRP — within 0.2 log units, -0.0475
- RRIRVRPPRLPRPRPRPKGRPRP — higher, 0.211
- RRIRHRPPRLPRPRPRPFNTPRP — lower, -1.18
- RRIRCRPPRLPRPRPRPRWTPRP — higher, 0.236
- RRIRMRPPRLPRPRPRPAYIPRP — higher, 0.768
- RRIRCRPPRLPRPRPRPRVIPRP — within 0.2 log units, 0.0854
- RRIRQRPPRLPRPRPRPANPPRP — within 0.2 log units, -0.234
- RRIRPRPPRLPRPRPRPKLNPRP — within 0.2 log units, 0.0891
- RRIRGRPPRLPRPRPRPVGLPRP — higher, 0.954
- RRIRPRPPRLPRPRPRPNQPPRP — within 0.2 log units, 0.0225
- RRIRCRPPRLPRPRPRPMVWPRP — higher, 0.412
- RRIRPRPPRLPRPRPRPMEPPRP — within 0.2 log units, -0.153
- RRIRPRPPRLPRPRPRPIRQPRP — within 0.2 log units, -0.0697
- RRIRKRPPRLPRPRPRPSSGPRP — within 0.2 log units, -0.0282
- RRIRARPPRLPRPRPRPGCMPRP — higher, 0.727
- RRIRLRPPRLPRPRPRPDDWPRP — within 0.2 log units, 0.044
- RRIRKRPPRLPRPRPRPPRMPRP — higher, 0.648
- RRIRERPPRLPRPRPRPIYEPRP — within 0.2 log units, -0.236
- RRIRLRPPRLPRPRPRPEAQPRP — higher, 0.375
- RRIRTRPPRLPRPRPRPVWTPRP — within 0.2 log units, 0.03
- RRIRNRPPRLPRPRPRPSCCPRP — lower, -0.318
- RRIRHRPPRLPRPRPRPPTNPRP — within 0.2 log units, 0.101
- RRIRFRPPRLPRPRPRPFPRPRP — within 0.2 log units, -0.0288
- RRIRKRPPRLPRPRPRPIHCPRP — within 0.2 log units, 0.0163
- RRIRTRPPRLPRPRPRPKRCPRP — within 0.2 log units, 0.0203
- RRIRMRPPRLPRPRPRPSGVPRP — within 0.2 log units, 0.0246
- RRIRWRPPRLPRPRPRPVQVPRP — within 0.2 log units, 0.0298
- RRIRKRPPRLPRPRPRPSCWPRP — higher, 0.244
- RRIRTRPPRLPRPRPRPHVPPRP — lower, -0.374
- RRIRARPPRLPRPRPRPILNPRP — within 0.2 log units, -0.273
- RRIRRRPPRLPRPRPRPRQSPRP — higher, 0.243
- RRIRFRPPRLPRPRPRPFICPRP — lower, -0.65
- RRIRPRPPRLPRPRPRPNFGPRP — higher, 0.26
- RRIRYRPPRLPRPRPRPYYGPRP — within 0.2 log units, -0.0846
- RRIRHRPPRLPRPRPRPENIPRP — within 0.2 log units, -0.0173
- RRIRIRPPRLPRPRPRPTWNPRP — higher, 0.409
- RRIRSRPPRLPRPRPRPEWIPRP — within 0.2 log units, 0.021
- RRIRSRPPRLPRPRPRPRYNPRP — lower, -0.479
- RRIRMRPPRLPRPRPRPMYHPRP — within 0.2 log units, -0.0178
- RRIRQRPPRLPRPRPRPDRDPRP — within 0.2 log units, -0.242
- RRIRNRPPRLPRPRPRPDDVPRP — within 0.2 log units, -0.0233
- RRIRQRPPRLPRPRPRPRDWPRP — higher, 1.63
- RRIRLRPPRLPRPRPRPWASPRP — within 0.2 log units, -0.0355
- RRIRERPPRLPRPRPRPEGDPRP — within 0.2 log units, 0.0441
- RRIRMRPPRLPRPRPRPIMAPRP — within 0.2 log units, -0.0196
- RRIRCRPPRLPRPRPRPHEAPRP — lower, -0.65
- RRIRVRPPRLPRPRPRPFYKPRP — lower, -0.502
- RRIRARPPRLPRPRPRPLHSPRP — within 0.2 log units, 0.0941
- RRIRHRPPRLPRPRPRPARRPRP — higher, 0.143
- RRIRSRPPRLPRPRPRPSKNPRP — lower, -0.306
- RRIRCRPPRLPRPRPRPHPEPRP — within 0.2 log units, -0.168
- RRIRMRPPRLPRPRPRPAEGPRP — higher, 0.265
- RRIRPRPPRLPRPRPRPYMMPRP — lower, -0.309
- RRIRHRPPRLPRPRPRPNFMPRP — lower, -0.5
- RRIRVRPPRLPRPRPRPGFSPRP — within 0.2 log units, -0.101
- RRIRWRPPRLPRPRPRPQCCPRP — within 0.2 log units, -0.0128
- RRIRQRPPRLPRPRPRPWTMPRP — within 0.2 log units, 0.0143
- RRIRVRPPRLPRPRPRPCWFPRP — within 0.2 log units, -0.106
- RRIRYRPPRLPRPRPRPRTIPRP — within 0.2 log units, -0.228
- RRIRCRPPRLPRPRPRPFDYPRP — within 0.2 log units, 0.0472
- RRIRLRPPRLPRPRPRPVWCPRP — within 0.2 log units, 0.0297
- RRIRDRPPRLPRPRPRPTTGPRP — higher, 0.673
- RRIRVRPPRLPRPRPRPGILPRP — lower, -0.466
- RRIRERPPRLPRPRPRPKQCPRP — lower, -0.354
- RRIRTRPPRLPRPRPRPLPSPRP — within 0.2 log units, -0.0373
- RRIRARPPRLPRPRPRPFPIPRP — higher, 0.264
- RRIRCRPPRLPRPRPRPKYIPRP — lower, -0.828
- RRIRDRPPRLPRPRPRPKPVPRP — within 0.2 log units, 0.00913
- RRIRFRPPRLPRPRPRPQMSPRP — within 0.2 log units, -0.204
- RRIRFRPPRLPRPRPRPEKWPRP — within 0.2 log units, 0.109
- RRIRARPPRLPRPRPRPDSKPRP — higher, 0.149
- RRIRFRPPRLPRPRPRPVWTPRP — lower, -0.488
- RRIRARPPRLPRPRPRPGNMPRP — within 0.2 log units, -0.0598
- RRIRERPPRLPRPRPRPDQGPRP — within 0.2 log units, 0.0476
- RRIRDRPPRLPRPRPRPHRVPRP — within 0.2 log units, -0.0141
- RRIRLRPPRLPRPRPRPILSPRP — within 0.2 log units, -0.0305
- RRIRERPPRLPRPRPRPQHMPRP — lower, -0.735
- RRIRFRPPRLPRPRPRPRQCPRP — within 0.2 log units, -0.123
- RRIRSRPPRLPRPRPRPGHCPRP — within 0.2 log units, 0.0298
- RRIRPRPPRLPRPRPRPTTMPRP — within 0.2 log units, -0.126
- RRIRERPPRLPRPRPRPSDYPRP — lower, -0.627
- RRIRVRPPRLPRPRPRPHCWPRP — within 0.2 log units, 0.0268
- RRIRCRPPRLPRPRPRPWYLPRP — within 0.2 log units, -0.0282
- RRIRTRPPRLPRPRPRPDVHPRP — higher, 1.16
- RRIRPRPPRLPRPRPRPLDSPRP — within 0.2 log units, -0.0664
- RRIRPRPPRLPRPRPRPFANPRP — within 0.2 log units, -0.0686
- RRIRKRPPRLPRPRPRPRERPRP — higher, 0.358
- RRIRQRPPRLPRPRPRPDNKPRP — lower, -0.532
- RRIRKRPPRLPRPRPRPWDIPRP — within 0.2 log units, -0.0322
- RRIRSRPPRLPRPRPRPAQQPRP — higher, 0.409
- RRIRWRPPRLPRPRPRPLWQPRP — higher, 0.156
- RRIRMRPPRLPRPRPRPCWIPRP — lower, -0.351
- RRIRNRPPRLPRPRPRPGAHPRP — within 0.2 log units, 0.0408
- RRIRGRPPRLPRPRPRPTFTPRP — higher, 0.638
- RRIRPRPPRLPRPRPRPPCKPRP — higher, 0.19
- RRIRARPPRLPRPRPRPCHNPRP — within 0.2 log units, -0.161
- RRIRYRPPRLPRPRPRPLIFPRP — lower, -1.08
- RRIRYRPPRLPRPRPRPFEKPRP — within 0.2 log units, 0.021
- RRIRGRPPRLPRPRPRPRRQPRP — higher, 0.85
- RRIRCRPPRLPRPRPRPFSLPRP — within 0.2 log units, -0.239
- RRIRQRPPRLPRPRPRPQQGPRP — within 0.2 log units, -0.147
- RRIRTRPPRLPRPRPRPKVHPRP — lower, -0.429
- RRIRNRPPRLPRPRPRPPNPPRP — higher, 0.411
- RRIRDRPPRLPRPRPRPSMRPRP — higher, 0.334
- RRIRKRPPRLPRPRPRPRCMPRP — higher, 0.401
- RRIRFRPPRLPRPRPRPRKYPRP — within 0.2 log units, -0.177
- RRIRMRPPRLPRPRPRPSQGPRP — higher, 0.179
- RRIRARPPRLPRPRPRPLQVPRP — higher, 0.151
- RRIRQRPPRLPRPRPRPEGWPRP — higher, 0.856
- RRIRGRPPRLPRPRPRPVDGPRP — higher, 0.587
- RRIRGRPPRLPRPRPRPDRLPRP — within 0.2 log units, -0.00118
- RRIRCRPPRLPRPRPRPCCEPRP — within 0.2 log units, 0.0666
- RRIRCRPPRLPRPRPRPTWCPRP — within 0.2 log units, -0.0117
- RRIRGRPPRLPRPRPRPGDRPRP — higher, 1
- RRIRCRPPRLPRPRPRPWDIPRP — within 0.2 log units, -0.179
- RRIRCRPPRLPRPRPRPEVLPRP — higher, 0.149
- RRIRIRPPRLPRPRPRPYRNPRP — within 0.2 log units, -0.0378
- RRIRPRPPRLPRPRPRPMCEPRP — within 0.2 log units, -0.0631
- RRIRARPPRLPRPRPRPKGYPRP — within 0.2 log units, 0.049
- RRIRGRPPRLPRPRPRPLCTPRP — higher, 2.26
- RRIRYRPPRLPRPRPRPYCIPRP — lower, -1.32
- RRIRTRPPRLPRPRPRPRSDPRP — within 0.2 log units, 0.0841
- RRIRCRPPRLPRPRPRPKHQPRP — within 0.2 log units, -0.0465
- RRIRVRPPRLPRPRPRPIFHPRP — within 0.2 log units, -0.0258
- RRIRQRPPRLPRPRPRPSPDPRP — higher, 0.262
- RRIRERPPRLPRPRPRPSQDPRP — within 0.2 log units, -0.137
- RRIRIRPPRLPRPRPRPDAQPRP — within 0.2 log units, -0.0523
- RRIRVRPPRLPRPRPRPYMSPRP — lower, -0.583
- RRIRGRPPRLPRPRPRPFMDPRP — within 0.2 log units, -0.000933
- RRIRRRPPRLPRPRPRPLIKPRP — within 0.2 log units, -0.0254
- RRIRGRPPRLPRPRPRPFYSPRP — within 0.2 log units, -0.00304
- RRIRMRPPRLPRPRPRPWFAPRP — higher, 0.18
- RRIRVRPPRLPRPRPRPPRGPRP — higher, 0.665
- RRIRSRPPRLPRPRPRPCCSPRP — within 0.2 log units, -0.00502
- RRIRNRPPRLPRPRPRPMCPPRP — within 0.2 log units, -0.0135
- RRIRMRPPRLPRPRPRPLRCPRP — higher, 1.61
- RRIRRRPPRLPRPRPRPFIWPRP — within 0.2 log units, 0.0601
- RRIRDRPPRLPRPRPRPIPQPRP — within 0.2 log units, -0.0127
- RRIRFRPPRLPRPRPRPTCIPRP — within 0.2 log units, -0.13
- RRIRIRPPRLPRPRPRPKFAPRP — within 0.2 log units, -0.0494
- RRIRERPPRLPRPRPRPYMPPRP — lower, -0.429
- RRIRARPPRLPRPRPRPSMIPRP — within 0.2 log units, -0.128
- RRIRKRPPRLPRPRPRPSYIPRP — within 0.2 log units, -0.136
- RRIRHRPPRLPRPRPRPWTLPRP — within 0.2 log units, -0.00151
- RRIRYRPPRLPRPRPRPQRAPRP — lower, -0.374
